{"source": "patent US8541236B2", "about": "“Mutant apolipoprotein A-1 polypeptide with increased resistance to oxidation and reactive carbonyls” (University of Washington, priority 2006, dated 2013)", "key": {"[1]": {"target": "T1, ABCA1 (Homo sapiens, UniProt O95477)", "T1 sequence (O95477 whole entry)": "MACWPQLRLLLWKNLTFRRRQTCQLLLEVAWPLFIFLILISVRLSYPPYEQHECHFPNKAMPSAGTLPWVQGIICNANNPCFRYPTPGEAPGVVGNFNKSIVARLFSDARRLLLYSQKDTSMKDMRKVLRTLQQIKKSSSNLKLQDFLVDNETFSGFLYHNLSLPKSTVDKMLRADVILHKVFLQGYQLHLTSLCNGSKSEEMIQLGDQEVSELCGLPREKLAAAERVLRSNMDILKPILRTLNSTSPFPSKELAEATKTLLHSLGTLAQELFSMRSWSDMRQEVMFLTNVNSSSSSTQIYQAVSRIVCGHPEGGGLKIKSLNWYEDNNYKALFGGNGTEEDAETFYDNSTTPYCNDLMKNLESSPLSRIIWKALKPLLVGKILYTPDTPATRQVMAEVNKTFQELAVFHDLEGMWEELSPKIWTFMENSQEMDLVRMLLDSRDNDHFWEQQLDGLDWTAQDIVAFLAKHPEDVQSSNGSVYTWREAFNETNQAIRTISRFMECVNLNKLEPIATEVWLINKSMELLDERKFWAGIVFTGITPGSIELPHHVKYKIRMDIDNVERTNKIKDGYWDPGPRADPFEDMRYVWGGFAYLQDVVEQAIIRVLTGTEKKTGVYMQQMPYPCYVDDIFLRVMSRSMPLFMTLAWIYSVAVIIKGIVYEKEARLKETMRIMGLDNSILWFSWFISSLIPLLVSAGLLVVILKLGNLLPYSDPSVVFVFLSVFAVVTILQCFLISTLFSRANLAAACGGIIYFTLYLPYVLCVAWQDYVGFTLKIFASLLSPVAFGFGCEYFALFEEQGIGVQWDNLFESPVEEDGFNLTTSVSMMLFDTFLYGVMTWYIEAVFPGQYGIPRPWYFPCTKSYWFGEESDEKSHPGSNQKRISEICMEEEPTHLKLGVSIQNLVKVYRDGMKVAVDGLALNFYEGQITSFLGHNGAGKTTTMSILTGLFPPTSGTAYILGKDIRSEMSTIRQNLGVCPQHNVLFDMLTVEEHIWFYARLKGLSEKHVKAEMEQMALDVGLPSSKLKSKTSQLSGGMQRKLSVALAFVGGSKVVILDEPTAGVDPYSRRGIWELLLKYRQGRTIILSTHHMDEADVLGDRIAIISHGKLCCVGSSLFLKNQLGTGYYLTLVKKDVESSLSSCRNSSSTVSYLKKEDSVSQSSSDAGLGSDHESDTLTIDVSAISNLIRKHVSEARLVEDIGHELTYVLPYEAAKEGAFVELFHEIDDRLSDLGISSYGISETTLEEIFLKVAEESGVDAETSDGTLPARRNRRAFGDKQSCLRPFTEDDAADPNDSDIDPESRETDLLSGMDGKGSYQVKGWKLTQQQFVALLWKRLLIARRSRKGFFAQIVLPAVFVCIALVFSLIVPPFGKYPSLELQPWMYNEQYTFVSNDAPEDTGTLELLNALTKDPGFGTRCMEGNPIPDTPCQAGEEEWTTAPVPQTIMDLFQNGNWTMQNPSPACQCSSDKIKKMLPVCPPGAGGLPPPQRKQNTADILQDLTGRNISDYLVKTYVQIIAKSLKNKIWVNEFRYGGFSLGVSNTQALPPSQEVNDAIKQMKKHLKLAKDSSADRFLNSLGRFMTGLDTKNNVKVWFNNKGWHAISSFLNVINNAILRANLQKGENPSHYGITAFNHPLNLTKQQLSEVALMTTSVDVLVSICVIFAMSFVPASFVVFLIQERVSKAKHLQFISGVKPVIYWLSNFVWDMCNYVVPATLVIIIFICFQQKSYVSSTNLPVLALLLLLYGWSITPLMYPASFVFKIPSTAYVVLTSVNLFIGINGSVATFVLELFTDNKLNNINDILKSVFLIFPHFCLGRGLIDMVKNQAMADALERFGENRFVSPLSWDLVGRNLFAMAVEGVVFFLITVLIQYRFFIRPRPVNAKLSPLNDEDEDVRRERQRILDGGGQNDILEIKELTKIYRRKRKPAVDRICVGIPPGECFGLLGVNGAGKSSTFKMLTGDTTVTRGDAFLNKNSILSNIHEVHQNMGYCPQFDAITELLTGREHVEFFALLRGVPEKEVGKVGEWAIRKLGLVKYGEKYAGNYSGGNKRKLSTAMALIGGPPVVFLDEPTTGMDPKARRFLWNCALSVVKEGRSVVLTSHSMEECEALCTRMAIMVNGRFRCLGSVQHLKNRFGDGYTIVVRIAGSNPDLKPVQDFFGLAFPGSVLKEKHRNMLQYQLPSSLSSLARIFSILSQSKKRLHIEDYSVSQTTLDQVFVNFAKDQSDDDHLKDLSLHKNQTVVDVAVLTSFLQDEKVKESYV", "design": "expressed in transfected cells; host or cells: BHK (baby hamster kidney) cells", "conditions": "cited from earlier work"}, "[2]": {"target": "T1, ABCA1", "test": "Radiolabeled cholesterol efflux assay from ABCA1-transfected BHK cells", "assay_type": "cell-based", "design": "expressed in transfected cells; host or cells: BHK (baby hamster kidney) cells, mifepristone-inducible GeneSwitch system", "conditions": "for cholesterol efflux promoted: after oxidation by the MPO system", "method": "The effect of oxidant treatment of apoA-I on the ability of apoA-I to promote cholesterol efflux from cells via the ABCA1 pathway was measured as follows.\nA radiolabeled cholesterol efflux assay from ABCA1-transfected cells was carried out as described in Shao, et al., J. Biol. Chem. 280(7):5983-5993, 2005. Briefly described, baby hamster kidney (BHK) cells expressing mifepristone-inducible human ABCA1 were generated as described in Vaughan, A. M., et al., J. Lipid. Res. 44:1373-1380, 2003. Cellular cholesterol was labeled by adding 1 μCi/ml [^3H]cholesterol (Perkin Elmer Life Sciences) to the growth medium. Twenty-four hours later, strong expression of ABCA1 was induced by incubating the cells for 20 h with Dulbecco's modified Eagle's medium containing 1 mg/ml bovine serum albumin and 1 nM mifepristone. To measure cholesterol efflux, mock or ABCA1-transfected cells were incubated with Dulbecco's modified Eagle's medium/bovine serum albumin with or without apoA-I treated under the following conditions:\n(1) purified apoA-I was treated for 1 hour with increasing concentrations of HOCl, H2O2 with MPO plus NACl, ONOO, or H2O2 with MPO plus NO2;\n(2) purified apoA-I was treated for 24 hours with a molar ratio (mol:mol) of 0, 1:25, or 1:50 of acrolein; and\n(3) peptide 2F was treated for 1 hour with a 25 molar excess of HOCl.\nAfter 2 hour incubations with apoA-I, the medium and cells were assayed for [^3H]cholesterol as described in Vaughan, A. M., et al., J. Lipid. Res. 44:1373-1380, 2003. Cholesterol efflux mediated by apoA-I was calculated as the percentage of total [^3H]cholesterol (medium plus cells) released into the medium after subtracting the value obtained with Dulbecco's modified Eagle's medium/bovine serum albumin alone. Acrolein adducts of K226 were measured by MS.\nBHK cells transfected with a mifepristone-inducible GeneSwitch (Invitrogen) system containing a human ABCA1 cDNA were incubated with serum-free medium with or without 10 nM mifipristone for 24 h to generate cells expressing virtually no or high levels of ABCA1, respectively (see Vaughan, A. M., and J. F. Oram, J. Lipid Res. 44:1373-1380, 2003). To radiolabel cellular cholesterol, [^3H]cholesterol was added to the acetyl LDL medium for macrophages and the growth medium prior to ABCA1 induction for BHK cells. Efflux of [^3H]cholesterol was measured after a 2 h incubation in medium with or without apoA-I (Tang, C., et al., J. Biol. Chem. 279:7622-7628, 2004)."}, "[3]": {"target": "T1, ABCA1", "test": "3H-cholesterol efflux from ABCA1-transfected BHK cells, 4 hour incubation with peptide (Example 11)", "assay_type": "cell-based", "design": "expressed in transfected cells; host or cells: BHK (baby hamster kidney) cells", "conditions": "20 μg/ml peptide, HOCl-treated (5 molar ratio HOCl to peptide)", "method": "(§1) Baby Hamster Kidney (BHK) cells were transfected with a cDNA expressing ABCA1 (ABCA1) or with a transfection vector alone (Mock). The transfected cells were radiolabeled with ^3H-cholesterol, washed and then incubated for 4 hours with media containing 20 μg/ml untreated or HOCl-treated (5 molar ratio HOCl to peptide) peptide 2F (SEQ ID NO:9). At the end of the incubation, the amount of ^3H-cholesterol (efflux) released from the cells was measured and expressed as the percent total (media plus cells) ^3H-cholesterol."}, "[4]": {"tested_on": "Baby Hamster Kidney (BHK) cells transfected with a transfection vector alone (Mock)", "test": "3H-cholesterol efflux from Mock-transfected BHK cells (ABCA1-independent, Example 11)", "assay_type": "cell-based", "conditions": "20 μg/ml peptide, HOCl-treated (5 molar ratio HOCl to peptide), 4 hours", "method": "as §1"}, "[5]": {"test": "ESI-MS analysis of chlorination after incubation with HOCl", "assay_type": "physicochemical", "conditions": "incubated in the presence of HOCl"}, "[6]": {"target": "T2, Lecithin Cholesterol Acyltransferase (LCAT) (Homo sapiens, UniProt P04180)", "T2 sequence (P04180 25-440)": "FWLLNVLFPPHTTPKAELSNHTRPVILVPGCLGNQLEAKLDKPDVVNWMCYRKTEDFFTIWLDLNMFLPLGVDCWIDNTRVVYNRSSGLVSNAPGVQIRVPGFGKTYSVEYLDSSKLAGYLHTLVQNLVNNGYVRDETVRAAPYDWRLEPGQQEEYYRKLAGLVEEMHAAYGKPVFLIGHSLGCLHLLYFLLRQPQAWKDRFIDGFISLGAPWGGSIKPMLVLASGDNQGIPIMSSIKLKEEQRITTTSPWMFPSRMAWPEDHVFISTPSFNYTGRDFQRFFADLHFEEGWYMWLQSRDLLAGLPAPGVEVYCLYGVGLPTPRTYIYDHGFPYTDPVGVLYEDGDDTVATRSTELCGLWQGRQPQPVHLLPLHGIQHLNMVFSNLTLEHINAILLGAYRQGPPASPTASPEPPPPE", "test": "Activation of LCAT after oxidation with MPO", "assay_type": "biochemical", "conditions": "apoA-I exposed to MPO", "method": "Reactions with isolated HDL (1 mg protein/ml) were carried out at 37° C. for 1 h in 50 mM sodium phosphate buffer (pH 7.4) containing 100 uM DTPA and 100 nM MPO. Reactions were initiated by adding hydrogen peroxide and terminated by adding a 20-fold molar excess (relative to peroxide) of Met."}, "[7]": {"test": "Far UV circular dichroism of HOCl-treated apoA-I", "assay_type": "physicochemical", "conditions": "treated 1 hour with HOCl", "method": "Secondary structure of apoA-I was determined using far UV circular dichroism."}, "[8]": {"target": "T1, ABCA1", "test": "Radiolabeled cholesterol efflux assay from ABCA1-transfected BHK cells", "assay_type": "cell-based", "design": "expressed in transfected cells; host or cells: BHK (baby hamster kidney) cells, mifepristone-inducible GeneSwitch system", "conditions": "apoA-I treated with increasing concentrations of MDA"}, "[9]": {"test": "Denaturing SDS-PAGE analysis of oxidant-treated apoA-I", "assay_type": "physicochemical", "method": "In order to analyze the effects of HOCl and acrolein on apoA-I structure, purified apoA-I was treated with a molar ratio of HOCl at mol:mol concentrations of 0, 5, 10, or 25; or with a molar ratio of acrolein at mol:mol concentrations of 0, 1, 2, 5, 10, or 20."}, "[10]": {"test": "Thioflavin T binding assay and electron microscopy for amyloid formation", "assay_type": "physicochemical", "method": "A thioflavin T binding assay was used to investigate whether chlorination of apoA-I promotes amyloid formation. Thioflavin T is known to bind rapidly to amyloid fibrils and undergoes a dramatic increase in fluorescence at 485 nm upon excitation at 455 nm (see Naiki, H., et al., Anal. Biochem. 177:244-249, 1989). apoA-I was chlorinated by treatment with HOCl or the MPO system and a time course of thioflavin T binding to treated apoA-I was carried out over 60 minutes as shown in FIG. 6B."}}, "note": "“Also recorded” adds a separate entry of the source.", "data": [{"substance": "Ac-DWFKAFYDKVAEKFKEAF-NH2 [4F, 4F apoA-I mimetic peptide, unmodified original]", "values": [{"measurement": "removing cell lipids by the ABCA1 pathway", "setting": "[1]", "value": "mimic apoA-I"}]}, {"substance": "Ac-DWLKAFYDKVAEKLKEAF-NH2 [2F, 2F apoA-I mimetic peptide, unmodified]", "values": [{"measurement": "ABCA1 dependent cholesterol efflux activity", "setting": "[2]; peptide treated 1 hour with a 25 molar excess of HOCl, versus untreated peptide", "value": "significantly reduced"}, {"measurement": "ability to remove cholesterol by ABCA1-dependent mechanism", "setting": "[3]", "value": "significantly reduced"}, {"measurement": "ability to remove cholesterol by ABCA1-independent mechanism", "setting": "[4]", "value": "significantly reduced"}, {"measurement": "removing cell lipids by the ABCA1 pathway", "setting": "[1]", "value": "mimic apoA-I"}]}, {"substance": "Tyr192Phe apoA-I: Tyr192Phe mutant of human apoA-I made by PCR mutagenesis, bacterially expressed", "values": [{"measurement": "cholesterol efflux promoted", "setting": "[2]", "value": "significantly decreased"}, {"measurement": "protective effect against apoA-I inactivation", "setting": "[2]; by either HOCL or the MPO system", "value": "only a small protective effect"}, {"measurement": "ability to promote cholesterol efflux", "setting": "[2]; increasing H2O2 in the complete MPO system, then incubated with PilB", "value": "nearly the same as that of native apoA-I"}, {"measurement": "rates of cholesterol efflux compared with native apoA-I", "setting": "[2]; no oxidant, increasing protein concentrations", "value": "virtually identical"}, {"measurement": "resistance to oxidative inactivation by MPO", "setting": "[2]; when the concentration of H2O2 was high", "value": "somewhat resistant"}, {"measurement": "chlorination of residue 192 by HOCl", "setting": "[5]", "value": "fails to chlorinate"}]}, {"substance": "apoA-I: mature form of wild type human apoA-I, 243 amino acid polypeptide, purified from HDL", "values": [{"measurement": "ability to activate LCAT", "setting": "[6]", "value": "looses its ability to activate LCAT; also recorded: loss of its ability"}, {"measurement": "mean residue molar ellipticity at 222 nm", "setting": "[7]", "value": "concentration-dependent increase"}, {"measurement": "correlation (R) of impaired cholesterol removal with adduction of K226", "setting": "[2]; acrolein-treated apoA-I", "value": 0.988}, {"measurement": "cholesterol efflux activity", "setting": "[2]; after nitration of apoA-I (H2O2 with MPO plus NO2)", "value": "fails to affect; also recorded: only a small inhibitory effect"}, {"measurement": "cholesterol efflux promoted", "setting": "[2]", "value": "significantly decreased"}, {"measurement": "cholesterol efflux activity", "setting": "[2]; apoA-I treated 1 hour with increasing concentrations of HOCl or of H2O2 with the complete chlorinating MPO system", "value": "progressively and extensively impaired"}, {"measurement": "ability to remove cellular cholesterol by the ABCA1 pathway", "setting": "[2]; apoA-I treated 24 hours with increasing concentrations of acrolein", "value": "progressively impaired"}, {"measurement": "cholesterol efflux activity", "setting": "[2]; apoA-I treated with ONOO-", "value": "no effect"}, {"measurement": "ability to promote cholesterol efflux", "setting": "[2]; complete MPO system with increasing H2O2 or increasing HOCl, then PilB to reduce Met(O) back to Met", "value": "partially restored"}, {"measurement": "cholesterol efflux activity", "setting": "[8]", "value": "progressively and extensively impaired"}, {"measurement": "higher molecular weight species on SDS-PAGE", "setting": "[9]; increasing concentrations of HOCl", "value": "generated higher molecular weight species that were resistant to SDS"}, {"measurement": "higher molecular weight species on SDS-PAGE", "setting": "[9]; increasing concentrations of acrolein", "value": "generated higher molecular weight species that were resistant to SDS"}, {"measurement": "higher molecular weight species on SDS-PAGE", "setting": "[9]; nitrated by reagent ONOO- or the complete MPO/H2O2/NO2 system", "value": "not observed"}, {"measurement": "thioflavin T binding", "setting": "[10]; chlorination by HOCl or the complete MPO system, versus untreated apoA-I", "value": "markedly increased"}, {"measurement": "amyloid-like structures", "setting": "[10]; nitrated apoA-I", "value": "failed to reveal amyloid-like structures"}, {"measurement": "amyloid-like structures", "setting": "[10]; untreated apoA-I", "value": "no detectable amyloid-like structures"}]}]}
